Test results from patent US20030143595A1.

Biological target: Shh-AP fusion protein (Sonic hedgehog fused to alkaline phosphatase)
Experiment: ligand-receptor binding study, Scatchard analysis (FIG. 3)

Chain of Shh-AP fusion protein (Sonic hedgehog fused to alkaline phosphatase) (Q62226 25-198): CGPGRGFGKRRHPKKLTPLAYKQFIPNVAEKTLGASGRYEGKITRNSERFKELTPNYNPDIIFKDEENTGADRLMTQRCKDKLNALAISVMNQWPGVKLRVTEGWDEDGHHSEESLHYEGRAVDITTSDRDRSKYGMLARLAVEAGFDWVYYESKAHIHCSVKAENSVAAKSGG

Kd: 1 nM
B1: murine HIP polypeptide (mouse hedgehog interacting protein) (receptor)
chain: LGFFEGDAKFGERSEGSGARRRRCLNGNPPKRLKRRDRRVMSQLELLSGGEILCGGFYPRVSCCLQSDSPGLGRLENKIFSATNNSECSRLLEEIQCAPCSPHSQSLFYTPERDVLDGDLALPLLCKDYCKEFFYTCRGHIPGLLQTTADEFCFYYARKDAGLCFPDFPRKQVRGPASNYLGQMEDYEKVGGISRKHKHNCLCVQEVMSGLRQPVSAVHSGDGSHRLFILEKEGYVKILTPEGELFKEPYLDIHKLVQSGIKGGDERGLLSLAFHPNYKKNGKLYVSYTTNQERWAIGPHDHILRVVEYTVSRKNPHQVDVRTARVFLEVAELHRKHLGGQLLFGPDGFLYIILGDGMITLDDMEEMDGLSDFTGSVLRLDVDTDMCNVPYSIPRSNPHFNSTNQPPEVFAHGLHDPGRCAVDRHPTDININLTILCSDSNGKNRSSARILQIIKGRDYESEPSLLEFKPFSNGPLVGGFVYRGCQSERLYGSYVFGDRNGNFLTLQQSPVTKQWQEKPLCLGASSSCRGYFSGHILGFGEDELGEVYILSSSKSMTQTHNGKLYKIVDPKRPLMPEECRVTVQPAQPLTSDCSRLCRNGYYTPTGKCCCSPGWEGDFCRIAKCEPACRHGGVCVRPNKCLCKKGYLGPQCEQVDRNVRRVTRAGILDQIIDMTSYLLDLTSYIV
